Test results published in patent publication US20210340173A1.

Tests used:
CCR5 on HEK-CCR5 cells = CCR5 on HEK-CCR5 cells (UniProt P51681); experiment: cell-based or functional assay
[1] = target: CCR5-RLuc8 on CHO-CCR5-RLuc8/YFP-CAAX cells (UniProt P51681); experiment: cell-based or functional assay

Ca2+ flux signaling at 300 nM on HEK-CCR5 cells (top of the scale) (CCR5 on HEK-CCR5 cells) | CCR5 internalization (bystander BRET) at 300 nM (top of the scale) [1] | Ca2+ flux signaling at 300 nM on HEK-CCR5 cells (bottom of the scale) (CCR5 on HEK-CCR5 cells) | CCR5 internalization (bystander BRET) at 300 nM (bottom of the scale) [1] | Substance
100% | 100% |  |  | PSC-RANTES reference standard (ligand)
 |  | 0% | 0% | 5P12-RANTES reference standard (from UniProt P13501 34-91) (ligand)
